Target: T1, TRBC2 (T-cell receptor beta constant region 2) (human, UniProt A0A5B9 1-129, limits assumed)
T1 construct: also called TCR beta-constant region 2
Test: ELISA

T1 sequence (A0A5B9 1-129 limits assumed): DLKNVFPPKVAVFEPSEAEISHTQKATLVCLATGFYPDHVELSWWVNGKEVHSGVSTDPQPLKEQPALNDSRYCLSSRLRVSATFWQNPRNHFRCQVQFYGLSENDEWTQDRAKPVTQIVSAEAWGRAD

Binder | binding result
Jovi Hum 8 (antibody, V domains shown, H-AF 1 carries no back-mutation (Q3, V20, M48, R71, T73), i.e. the plain H-AF062256 graft; also called H-AF 1; H-AF1, 3aaz) VH: QVQLVQSGAEVKKPGASVKVSCKASGYTFTGYVMHWVRQAPGQGLEWMGFINPYNDDIQSNERFRGRVTMTRDTSISTAYMELSRLRSDDTAVYYCARGAGYNFDGAYRFFDFWGQGTMVTVSS VL: DIVMTQSPLSLPVTPGEPASISCRSSQRLVHSNGNTYLHWYLQKPGQSPRLLIYRVSNRFPGVPDRFSGSGSGTDFTLKISRVEAEDVGVYYCSQSTHVPYTFGQGTKLEIK | no binding
Jovi Hum 17 (antibody, V domains shown, also called H-AF 3) VH: QVQLVQSGAEVKKPGASVKVSCKASGYTFTGYVMHWVRQAPGQGLEWMGFINPYNDDIQSNERFRGRVTMTSDTSISTAYMELSRLRSDDTAVYYCARGAGYNFDGAYRFFDFWGQGTMVTVSS VL: DIVMTQSPLSLPVTPGEPASISCRSSQRLVHSNGNTYLHWYLQKPGQSPRLLIYRVSNRFPGVPDRFSGSGSGTDFTLKISRVEAEDVGVYYCSQSTHVPYTFGQGTKLEIK | no binding
Jovi Hum 16 (antibody, V domains shown, also called H-AF 2) VH: QVQLVQSGAEVKKPGASVKVSCKASGYTFTGYVMHWVRQAPGQGLEWMGFINPYNDDIQSNERFRGRVTMTRDKSISTAYMELSRLRSDDTAVYYCARGAGYNFDGAYRFFDFWGQGTMVTVSS VL: DIVMTQSPLSLPVTPGEPASISCRSSQRLVHSNGNTYLHWYLQKPGQSPRLLIYRVSNRFPGVPDRFSGSGSGTDFTLKISRVEAEDVGVYYCSQSTHVPYTFGQGTKLEIK | no binding
Jovi Hum 19 (antibody, V domains shown, also called H-AF 5) VH: QVQLVQSGAEVKKPGASVKVSCKASGYTFTGYVMHWVRQAPGQGLEWIGFINPYNDDIQSNERFRGRVTMTRDTSISTAYMELSRLRSDDTAVYYCARGAGYNFDGAYRFFDFWGQGTMVTVSS VL: DIVMTQSPLSLPVTPGEPASISCRSSQRLVHSNGNTYLHWYLQKPGQSPRLLIYRVSNRFPGVPDRFSGSGSGTDFTLKISRVEAEDVGVYYCSQSTHVPYTFGQGTKLEIK | no binding
Jovi Hum 26 (antibody, V domains shown, also called H-AF 12) VH: QVQLVQSGAEVKKPGASVKMSCKASGYTFTGYVMHWVRQAPGQGLEWMGFINPYNDDIQSNERFRGRVTMTSDKSISTAYMELSRLRSDDTAVYYCARGAGYNFDGAYRFFDFWGQGTMVTVSS VL: DIVMTQSPLSLPVTPGEPASISCRSSQRLVHSNGNTYLHWYLQKPGQSPRLLIYRVSNRFPGVPDRFSGSGSGTDFTLKISRVEAEDVGVYYCSQSTHVPYTFGQGTKLEIK | no binding
Jovi Hum 27 (antibody, V domains shown, also called H-AF 13) VH: QVQLVQSGAEVKKPGASVKMSCKASGYTFTGYVMHWVRQAPGQGLEWIGFINPYNDDIQSNERFRGRVTMTRDTSISTAYMELSRLRSDDTAVYYCARGAGYNFDGAYRFFDFWGQGTMVTVSS VL: DIVMTQSPLSLPVTPGEPASISCRSSQRLVHSNGNTYLHWYLQKPGQSPRLLIYRVSNRFPGVPDRFSGSGSGTDFTLKISRVEAEDVGVYYCSQSTHVPYTFGQGTKLEIK | no binding
Jovi Hum 20 (antibody, V domains shown, also called H-AF 6) VH: QVQLVQSGAEVKKPGASVKVSCKASGYTFTGYVMHWVRQAPGQGLEWIGFINPYNDDIQSNERFRGRVTMTRDKSISTAYMELSRLRSDDTAVYYCARGAGYNFDGAYRFFDFWGQGTMVTVSS VL: DIVMTQSPLSLPVTPGEPASISCRSSQRLVHSNGNTYLHWYLQKPGQSPRLLIYRVSNRFPGVPDRFSGSGSGTDFTLKISRVEAEDVGVYYCSQSTHVPYTFGQGTKLEIK | no binding
Jovi Hum 18 (antibody, V domains shown, also called H-AF 4) VH: QVQLVQSGAEVKKPGASVKVSCKASGYTFTGYVMHWVRQAPGQGLEWMGFINPYNDDIQSNERFRGRVTMTSDKSISTAYMELSRLRSDDTAVYYCARGAGYNFDGAYRFFDFWGQGTMVTVSS VL: DIVMTQSPLSLPVTPGEPASISCRSSQRLVHSNGNTYLHWYLQKPGQSPRLLIYRVSNRFPGVPDRFSGSGSGTDFTLKISRVEAEDVGVYYCSQSTHVPYTFGQGTKLEIK | no binding

From patent US20260274948A1 (AUTOLUS, published 2026)
